Measured values from patent US20180312565A1.

Target: PD-L1 on PD-L1 expressing cells (IFNg-stimulated THP-1 cells; MDA-MB-231 cells) (UniProt Q9NZQ7)
Test: FACS, MDA-MB-231 cells, 1 µg/ml, other secondary antibody

Chain of PD-L1 on PD-L1 expressing cells (IFNg-stimulated THP-1 cells; MDA-MB-231 cells) (Q9NZQ7 19-290 limits assumed): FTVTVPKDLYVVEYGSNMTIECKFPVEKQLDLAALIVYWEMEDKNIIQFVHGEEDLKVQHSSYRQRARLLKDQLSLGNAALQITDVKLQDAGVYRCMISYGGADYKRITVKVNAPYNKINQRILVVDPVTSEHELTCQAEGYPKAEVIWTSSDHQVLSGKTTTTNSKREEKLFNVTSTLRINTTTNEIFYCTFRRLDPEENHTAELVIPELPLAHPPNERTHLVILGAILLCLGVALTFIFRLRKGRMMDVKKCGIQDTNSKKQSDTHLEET

MFI: 610
Substance: mouse anti-PD-L1 antibody (R&D Systems, cat. no. MAB1561)
